In test [1] the target is T1, human DLL4 extracellular domain (human, UniProt Q9NR61 27-529).
T1 construct: extracellular domain; coated on plates in the sVEGFR1 assay; also called huDLL4 ECD; Human DLL4 ECD
Kind of test: Biacore SPR (*historic data); historic data, not from the same run as the other cells. A general note: SPR reads the build-up and loss of mass on a sensor chip optically.

Test [2] has as its target T2, mouse DLL4 extracellular domain (mouse, UniProt Q9JI71 27-532).
T2 construct: extracellular domain; also called muDLL4 ECD; Mouse DLL4 ECD
Kind of test: competition ELISA, competitor huNotch-1. Background: In an ELISA, binding on a coated surface is turned into a signal by an enzyme label.
Experimental: (§1) Plates were then washed 3 times with wash buffer (PBS, 0.05% Tween-20) and blocked with 200 μl/well blocking buffer (D-PBS, 1% BSA, 1 mM CaCl₂, 0.05% Tween-20) for 1 hour at 25° C. […] Assay plates were washed after blocking, and incubated with DLL4/antibody mixtures (100 μl/well, 1 hour at 25° C. with shaking). […] After a final wash, plates were developed using 100 μl/well substrate (TMB Sigma # T8665), and the reaction was stopped after an 8-minute incubation at 25° C. (for muDLL4 ELISA) and after 20 minute incubation at 25° C. (for huDLL4 ELISA) using 100 μl/well 1N HCl, and the absorbance was read at 450 nm.

Test [3] has as its target T1, human DLL4 extracellular domain. The experiment in a line: competition ELISA, competitor huNotch-1.
Experimental: as §1
Test [4] has as its target T3, mouse DLL4-his (mouse, UniProt Q9JI71 27-532).
T3 construct: extracellular domain; not shown: his tag
The experiment in a line: ELISA on DLL4-his.

Test [5] addresses T4, human DLL4-his (human, UniProt Q9NR61 27-529).
T4 construct: extracellular domain
The experiment in a line: ELISA on DLL4-his.
Experimental: After the final wash, plates were incubated with 100 μl/well ELISA substrate (Sigma # T8665). The reaction was stopped after 8 minutes at 25° C. with 100 μl/well 1N HCl and the absorbance was read at 450 nm. Data were analyzed using Graphpad Prism software and EC50 values were reported.

Test [6] deals with T5, human DLL4 on the cell surface (human, UniProt Q9NR61 27-685).
T5 construct: whole, on cells; also called HEK293-hDLL4; hDLL4-293G
Kind of test: competition FACS, competitor huNotch-1.
Experimental: (§2) Notch blocking assay: Briefly, stable cell lines overexpressing cell-surface DLL4 were harvested from tissue culture flasks and re-suspended in phosphate buffered saline (PBS) containing 1% bovine serum albumin and 1 mM CaCl₂ (FACS buffer). HEK293-hDLL4 or HEK293-mDLL4 cells were dispensed into 96-well plate (v-bottom) at 1.5×10⁵ cells/well in FACS buffer. […] After washing the cells two times with FACS buffer, 50 μL of R-phycoerythrin-conjugated streptavidin (1:150 dilution in FACS buffer) (Jackson ImmunoResearch, West Grove, Pa., US, catalog no. 016-110-084) were added. Following an incubation on ice (4° C., 60 minutes), cells were washed three times and resuspended in FACS buffer. Fluorescence was measured using a Becton Dickinson FACSCalibur-HTS (Becton Dickinson, San Jose. Calif.).

Test [7] addresses T6, mouse DLL4 on the cell surface (mouse, UniProt Q9JI71 27-686).
T6 construct: whole, on cells; also called HEK293-mDLL4; mDLL4-293G
Kind of test: competition FACS, competitor huNotch-1.
Experimental: as §2

The target of test [8] is T5, human DLL4 on the cell surface. Kind of test: FACS on DLL4 cells.
Experimental: (§3) Stable cell lines overexpressing cell-surface DLL4 were harvested from tissue culture flasks, washed four times and resuspended in phosphate buffered saline (PBS) containing 1% bovine serum albumin and 1 mM CaCl₂ (FACS buffer), 1.5×10³ cells were incubated with antibodies at various concentrations in FACS buffer for 60 minutes on ice. Cells were washed twice and 50 μL of R-phycoerythrin-conjugated anti-rat IgG. […] Following an incubation on ice (4° C., 60 minutes), cells were washed three times and resuspended in FACS buffer. Fluorescence was measured using a Becton Dickinson FACSCalibur-HTS (Becton Dickinson, San Jose. Calif., US). Data were analyzed using Graphpad Prism software and EC₅₀ values were reported as the concentration of antibody to achieve 50% of maximal DLL4 antibodies binding to DLL4 expressing cells.
Test [9] concerns the target T6, mouse DLL4 on the cell surface. The experiment in a line: FACS on DLL4 cells.
Experimental: as §3
In test [10] the target is T2, mouse DLL4 extracellular domain. The experiment in a line: Biacore SPR.
Experimental: The BIACORE® surface plasmon resonance assay (Biacore, Inc., Piscataway, N.J., US) determines the affinity of antibodies with kinetic measurements of on-rate and off-rate constants. Binding of DLL4 antibodies to a purified recombinant DLL4 extracellular domain is determined by surface plasmon resonance-based measurements with a Biacore® instrument (either a Biacore 2000, Biacore 3000, or Biacore T100, GE Healthcare, Piscataway, N.J. US) using running buffer HBS-EPB (10 mM HEPES [pH 7.4], 150 mM NaCl, 3 mM EDTA, 0.1 mg/ml BSA and 0.005% surfactant P20) at 25° C. For example, approximately 9000 RU of goat anti-human Fc specific polyclonal antibody (Thermo Fisher Scientific Inc., Rockford, Ill., US) diluted in 10 mM sodium acetate (pH 4.5) is directly immobilized across a CM5 research grade biosensor chip using a standard amine coupling kit according to manufacturer's instructions and procedures at 25 μg/ml. Unreacted moieties on the biosensor surface are blocked with ethanolamine. For kinetic analysis, rate equations derived from the 1:1 Langmuir binding model are fitted simultaneously to multiple antigen injections (using global fit analysis) with the use of Scrubber 2 (BioLogic Software). […] The equilibrium dissociation constant KD (M) of the reaction between antibodies and the target antigen is then calculated from the kinetic rate constants by the following formula: KD=Koff/Kₒₙ. Binding is recorded as a function of time and kinetic rate constants are calculated. In this assay, on-rates as fast as 10⁶ M⁻¹s⁻¹ and off-rates as slow as 10⁻⁶ s⁻¹ can be measured.

T6 sequence (Q9JI71 27-686): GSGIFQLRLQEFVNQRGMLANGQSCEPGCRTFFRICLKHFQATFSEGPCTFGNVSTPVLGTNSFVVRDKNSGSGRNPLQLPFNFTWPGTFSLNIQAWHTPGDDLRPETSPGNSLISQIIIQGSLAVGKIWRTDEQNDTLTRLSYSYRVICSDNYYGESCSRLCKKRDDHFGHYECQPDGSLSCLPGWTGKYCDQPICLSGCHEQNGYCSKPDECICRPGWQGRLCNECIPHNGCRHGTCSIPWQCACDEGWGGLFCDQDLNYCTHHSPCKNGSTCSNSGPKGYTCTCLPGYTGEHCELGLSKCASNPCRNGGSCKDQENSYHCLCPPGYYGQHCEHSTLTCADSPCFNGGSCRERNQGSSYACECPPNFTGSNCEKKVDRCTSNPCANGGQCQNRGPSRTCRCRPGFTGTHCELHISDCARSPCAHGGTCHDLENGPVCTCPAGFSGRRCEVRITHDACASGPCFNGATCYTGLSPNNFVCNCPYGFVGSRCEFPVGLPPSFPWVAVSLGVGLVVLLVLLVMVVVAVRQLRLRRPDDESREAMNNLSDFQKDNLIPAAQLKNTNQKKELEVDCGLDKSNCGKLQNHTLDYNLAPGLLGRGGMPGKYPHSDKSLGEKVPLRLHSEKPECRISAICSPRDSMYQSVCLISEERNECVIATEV
T2 sequence (Q9JI71 27-532): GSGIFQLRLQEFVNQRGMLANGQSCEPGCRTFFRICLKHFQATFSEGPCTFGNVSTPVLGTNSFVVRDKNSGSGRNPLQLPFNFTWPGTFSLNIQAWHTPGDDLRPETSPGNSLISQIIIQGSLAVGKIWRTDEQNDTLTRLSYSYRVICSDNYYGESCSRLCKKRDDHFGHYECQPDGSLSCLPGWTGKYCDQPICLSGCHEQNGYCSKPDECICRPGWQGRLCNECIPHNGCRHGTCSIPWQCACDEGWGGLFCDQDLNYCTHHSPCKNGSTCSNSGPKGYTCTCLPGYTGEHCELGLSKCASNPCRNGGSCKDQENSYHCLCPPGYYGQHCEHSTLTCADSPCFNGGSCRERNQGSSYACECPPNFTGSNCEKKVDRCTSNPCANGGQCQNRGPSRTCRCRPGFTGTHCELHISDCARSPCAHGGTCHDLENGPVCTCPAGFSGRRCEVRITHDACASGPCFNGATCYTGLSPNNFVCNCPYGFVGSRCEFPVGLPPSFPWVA
T3 sequence (Q9JI71 27-532): as above

B1: E9-SE1 (antibody, V domains shown)
VH: EVQLVESGGGLVQPGGSLRLSCAVSGGSISSSSYYWGWIRQAPGKGLEWIGDIYYTGSTYYNPSLKSRVTISVDTSKNSFYLQMNSLRAEDTAVYYCAREDVILRGGSDYWGQGTLVTVSS
VL: LYVLTQPPSVSVSPGQTASITCSGQRLGDKYASWYQQKPGQSPVLVIYEDSKRPSGIPERFSGSNSGDTATLTISGTQTMDEADYLCQAWDRDTGVFGGGTKVTVLG
notes: full-length human IgG1
In the case of B1, the Kd (in general, a measure of binding affinity in units of concentration) in test [1] was determined as 15.2 nM; in test [8], 3.45 nM; in test [9], 1.34 nM; in [10] it was 12.8 nM. Besides, the IC50 (usually the point on the concentration scale where inhibition reaches its midpoint) came to 2.9 nM in test [2], 2.7 nM in [3], 8.51 nM in [6] and 1.71 nM in [7]. The EC50 (usually the midpoint of the concentration-response curve) worked out at 0.19 nM in test [4] and 0.16 nM in test [5].

The record behind these values is patent US20200255508A1 (AbbVie / Abbott, published 2020).
